Columns and labels:
Experiment in all cases: SDS-PAGE without boiling
[1] = molecular target: FITC-labeled cholera toxin B (sortase-labeled GGG-CTB) (UniProt P01556)
[2] = molecular target: cholera toxin B with an N-terminal triglycine extension (UniProt P01556)
[3] = molecular target: the molecule itself

FITC-labeled cholera toxin B (sortase-labeled GGG-CTB) (from UniProt P01556 22-124) (natural protein)
stoichiometry N [1]: 5

cholera toxin B with an N-terminal triglycine extension (from UniProt P01556 22-124) (natural protein)
stoichiometry N [2]: 5

B1: cholera toxin B-subunit (natural protein)
chain: TPQNITDLCAEYHNTQIYTLNDKIFSYTESLAGKREMAIITFKNGAIFQVEVPGSQHIDSQKKAIERMKDTLRIAYLTEAKVEKLCVWNNKTPHAIAAISMAN
notes: also called B5; B5 pentamer
stoichiometry N [3]: 5

From article PMC11054894, “Sortase-Modified Cholera Toxoids Show Specific Golgi Localization” (Toxins, 2024)
